B1: A203L: A2aR point mutant (protein, UniProt P29274 1-412, looked up, variant A203L)
Adenosine receptor A2a: MPIMGSSVYITVELAIAVLAILGNVLVCWAVWLNSNLQNVTNYFVVSLAAADIAVGVLAIPFAITISTGFCAACHGCLFIACFVLVLTQSSIFSLLAIAIDRYIAIRIPLRYNGLVTGTRAKGIIAICWVLSFAIGLTPMLGWNNCGQPKEGKNHSQGCGEGQVACLFEDVVPMNYMVYFNFFACVLVPLLLMLGVYLRIFLLARRQLKQMESQPLPGERARSTLQKEVHAAKSLAIIVGLFALCWLPLHIINCFTFFCPDCSHAPLWLMYLAIVLSHTNSVVNPFIYAYRIREFRQTFRKIIRSHVLRQQEPFKAAGTSARVLAAHGSDGEQVSLRLNGHPPGVWANGSAPHPERRPNGYALGLVSGGSAQESQGNTGLPDVELLSHELKGVCPEPPGLDDPLAQDGAGVS
B2: T224A: A2aR point mutant (protein, UniProt P29274 1-412, looked up, variant T224A)
Adenosine receptor A2a: MPIMGSSVYITVELAIAVLAILGNVLVCWAVWLNSNLQNVTNYFVVSLAAADIAVGVLAIPFAITISTGFCAACHGCLFIACFVLVLTQSSIFSLLAIAIDRYIAIRIPLRYNGLVTGTRAKGIIAICWVLSFAIGLTPMLGWNNCGQPKEGKNHSQGCGEGQVACLFEDVVPMNYMVYFNFFACVLVPLLLMLGVYLRIFLAARRQLKQMESQPLPGERARSALQKEVHAAKSLAIIVGLFALCWLPLHIINCFTFFCPDCSHAPLWLMYLAIVLSHTNSVVNPFIYAYRIREFRQTFRKIIRSHVLRQQEPFKAAGTSARVLAAHGSDGEQVSLRLNGHPPGVWANGSAPHPERRPNGYALGLVSGGSAQESQGNTGLPDVELLSHELKGVCPEPPGLDDPLAQDGAGVS
B3: Q210A: A2aR point mutant (protein, UniProt P29274 1-412, looked up, variant Q210A)
Adenosine receptor A2a: MPIMGSSVYITVELAIAVLAILGNVLVCWAVWLNSNLQNVTNYFVVSLAAADIAVGVLAIPFAITISTGFCAACHGCLFIACFVLVLTQSSIFSLLAIAIDRYIAIRIPLRYNGLVTGTRAKGIIAICWVLSFAIGLTPMLGWNNCGQPKEGKNHSQGCGEGQVACLFEDVVPMNYMVYFNFFACVLVPLLLMLGVYLRIFLAARRQLKAMESQPLPGERARSTLQKEVHAAKSLAIIVGLFALCWLPLHIINCFTFFCPDCSHAPLWLMYLAIVLSHTNSVVNPFIYAYRIREFRQTFRKIIRSHVLRQQEPFKAAGTSARVLAAHGSDGEQVSLRLNGHPPGVWANGSAPHPERRPNGYALGLVSGGSAQESQGNTGLPDVELLSHELKGVCPEPPGLDDPLAQDGAGVS
B4: R220A: A2aR point mutant (protein, UniProt P29274 1-412, looked up, variant R220A)
Adenosine receptor A2a: MPIMGSSVYITVELAIAVLAILGNVLVCWAVWLNSNLQNVTNYFVVSLAAADIAVGVLAIPFAITISTGFCAACHGCLFIACFVLVLTQSSIFSLLAIAIDRYIAIRIPLRYNGLVTGTRAKGIIAICWVLSFAIGLTPMLGWNNCGQPKEGKNHSQGCGEGQVACLFEDVVPMNYMVYFNFFACVLVPLLLMLGVYLRIFLAARRQLKQMESQPLPGEAARSTLQKEVHAAKSLAIIVGLFALCWLPLHIINCFTFFCPDCSHAPLWLMYLAIVLSHTNSVVNPFIYAYRIREFRQTFRKIIRSHVLRQQEPFKAAGTSARVLAAHGSDGEQVSLRLNGHPPGVWANGSAPHPERRPNGYALGLVSGGSAQESQGNTGLPDVELLSHELKGVCPEPPGLDDPLAQDGAGVS
B5: L208A: A2aR point mutant (protein, UniProt P29274 1-412, looked up, variant L208A)
Adenosine receptor A2a: MPIMGSSVYITVELAIAVLAILGNVLVCWAVWLNSNLQNVTNYFVVSLAAADIAVGVLAIPFAITISTGFCAACHGCLFIACFVLVLTQSSIFSLLAIAIDRYIAIRIPLRYNGLVTGTRAKGIIAICWVLSFAIGLTPMLGWNNCGQPKEGKNHSQGCGEGQVACLFEDVVPMNYMVYFNFFACVLVPLLLMLGVYLRIFLAARRQAKQMESQPLPGERARSTLQKEVHAAKSLAIIVGLFALCWLPLHIINCFTFFCPDCSHAPLWLMYLAIVLSHTNSVVNPFIYAYRIREFRQTFRKIIRSHVLRQQEPFKAAGTSARVLAAHGSDGEQVSLRLNGHPPGVWANGSAPHPERRPNGYALGLVSGGSAQESQGNTGLPDVELLSHELKGVCPEPPGLDDPLAQDGAGVS
B6: S223A: A2aR point mutant (protein, UniProt P29274 1-412, looked up, variant S223A)
Adenosine receptor A2a: MPIMGSSVYITVELAIAVLAILGNVLVCWAVWLNSNLQNVTNYFVVSLAAADIAVGVLAIPFAITISTGFCAACHGCLFIACFVLVLTQSSIFSLLAIAIDRYIAIRIPLRYNGLVTGTRAKGIIAICWVLSFAIGLTPMLGWNNCGQPKEGKNHSQGCGEGQVACLFEDVVPMNYMVYFNFFACVLVPLLLMLGVYLRIFLAARRQLKQMESQPLPGERARATLQKEVHAAKSLAIIVGLFALCWLPLHIINCFTFFCPDCSHAPLWLMYLAIVLSHTNSVVNPFIYAYRIREFRQTFRKIIRSHVLRQQEPFKAAGTSARVLAAHGSDGEQVSLRLNGHPPGVWANGSAPHPERRPNGYALGLVSGGSAQESQGNTGLPDVELLSHELKGVCPEPPGLDDPLAQDGAGVS
B7: E219A: A2aR point mutant (protein, UniProt P29274 1-412, looked up, variant E219A)
Adenosine receptor A2a: MPIMGSSVYITVELAIAVLAILGNVLVCWAVWLNSNLQNVTNYFVVSLAAADIAVGVLAIPFAITISTGFCAACHGCLFIACFVLVLTQSSIFSLLAIAIDRYIAIRIPLRYNGLVTGTRAKGIIAICWVLSFAIGLTPMLGWNNCGQPKEGKNHSQGCGEGQVACLFEDVVPMNYMVYFNFFACVLVPLLLMLGVYLRIFLAARRQLKQMESQPLPGARARSTLQKEVHAAKSLAIIVGLFALCWLPLHIINCFTFFCPDCSHAPLWLMYLAIVLSHTNSVVNPFIYAYRIREFRQTFRKIIRSHVLRQQEPFKAAGTSARVLAAHGSDGEQVSLRLNGHPPGVWANGSAPHPERRPNGYALGLVSGGSAQESQGNTGLPDVELLSHELKGVCPEPPGLDDPLAQDGAGVS
B8: S213A: A2aR point mutant (protein, UniProt P29274 1-412, looked up, variant S213A)
Adenosine receptor A2a: MPIMGSSVYITVELAIAVLAILGNVLVCWAVWLNSNLQNVTNYFVVSLAAADIAVGVLAIPFAITISTGFCAACHGCLFIACFVLVLTQSSIFSLLAIAIDRYIAIRIPLRYNGLVTGTRAKGIIAICWVLSFAIGLTPMLGWNNCGQPKEGKNHSQGCGEGQVACLFEDVVPMNYMVYFNFFACVLVPLLLMLGVYLRIFLAARRQLKQMEAQPLPGERARSTLQKEVHAAKSLAIIVGLFALCWLPLHIINCFTFFCPDCSHAPLWLMYLAIVLSHTNSVVNPFIYAYRIREFRQTFRKIIRSHVLRQQEPFKAAGTSARVLAAHGSDGEQVSLRLNGHPPGVWANGSAPHPERRPNGYALGLVSGGSAQESQGNTGLPDVELLSHELKGVCPEPPGLDDPLAQDGAGVS
B9: A86L: NTR point mutant (protein, UniProt P20789 1-424, looked up, variant A86L)
Neurotensin receptor type 1: MHLNSSVPQGTPGEPDAQPFSGPQSEMEATFLALSLSNGSGNTSESDTAGPNSDLDVNTDIYSKVLVTAIYLALFVVGTVGNSVTLFTLARKKSLQSLQSTVHYHLGSLALSDLLILLLAMPVELYNFIWVHHPWAFGDAGCRGYYFLRDACTYATALNVASLSVERYLAICHPFKAKTLMSRSRTKKFISAIWLASALLAIPMLFTMGLQNRSGDGTHPGGLVCTPIVDTATVKVVIQVNTFMSFLFPMLVISILNTVIANKLTVMVHQAAEQGRVCTVGTHNGLEHSTFNMTIEPGRVQALRHGVLVLRAVVIAFVVCWLPYHVRRLMFCYISDEQWTTFLFDFYHYFYMLTNALFYVSSAINPILYNLVSANFRQVFLSTLACLCPGWRHRRKKRPTFSRKPNSMSSNHAFSTSATRETLY
B10: A385L: NTR point mutant (protein, UniProt P20789 1-424, looked up, variant A385L)
Neurotensin receptor type 1: MHLNSSVPQGTPGEPDAQPFSGPQSEMEATFLALSLSNGSGNTSESDTAGPNSDLDVNTDIYSKVLVTAIYLALFVVGTVGNSVTAFTLARKKSLQSLQSTVHYHLGSLALSDLLILLLAMPVELYNFIWVHHPWAFGDAGCRGYYFLRDACTYATALNVASLSVERYLAICHPFKAKTLMSRSRTKKFISAIWLASALLAIPMLFTMGLQNRSGDGTHPGGLVCTPIVDTATVKVVIQVNTFMSFLFPMLVISILNTVIANKLTVMVHQAAEQGRVCTVGTHNGLEHSTFNMTIEPGRVQALRHGVLVLRAVVIAFVVCWLPYHVRRLMFCYISDEQWTTFLFDFYHYFYMLTNALFYVSSAINPILYNLVSANFRQVFLSTLLCLCPGWRHRRKKRPTFSRKPNSMSSNHAFSTSATRETLY
B11: Y349A: NTR point mutant (protein, UniProt P20789 1-424, looked up, variant Y349A)
Neurotensin receptor type 1: MHLNSSVPQGTPGEPDAQPFSGPQSEMEATFLALSLSNGSGNTSESDTAGPNSDLDVNTDIYSKVLVTAIYLALFVVGTVGNSVTAFTLARKKSLQSLQSTVHYHLGSLALSDLLILLLAMPVELYNFIWVHHPWAFGDAGCRGYYFLRDACTYATALNVASLSVERYLAICHPFKAKTLMSRSRTKKFISAIWLASALLAIPMLFTMGLQNRSGDGTHPGGLVCTPIVDTATVKVVIQVNTFMSFLFPMLVISILNTVIANKLTVMVHQAAEQGRVCTVGTHNGLEHSTFNMTIEPGRVQALRHGVLVLRAVVIAFVVCWLPYHVRRLMFCYISDEQWTTFLFDFYHAFYMLTNALFYVSSAINPILYNLVSANFRQVFLSTLACLCPGWRHRRKKRPTFSRKPNSMSSNHAFSTSATRETLY

Test: Thermostability of A2aR and mutants (ligand binding after or during heating)
Assay type: physicochemical
Details: Ligand(−) format, binding after the heating step
Text: FIG. 12 Flow chart showing the two different assay formats of ligand (+) and ligand (−) used to determine receptor thermostability.
• 1. 315 site-directed mutants made between residues 2-316 of A2aR. • 2. All of these mutants have been assayed for thermostability using an assay measuring agonist and antagonist binding after the heating step (Ligand(−) format as described in FIG. 12). • a. […] Mutations have been combined to generate mutants in a putative antagonist conformation. Wildtype A2aR has a Tm of 31° C. with ZM241385 bound. • a. Rant17 A54L+K122A+L235A Tm 48° C. (ZM241385 bound) • b. Rant19 A54L, T88A, V239A+A204L Tm 47° C. (ZM241385 bound) • c. Rant21 A54L, T88A, V239A+K122A Tm 49° C. (ZM241385 bound) • 4. Mutations from the agonist screen have been combined, but have led to only a very low level of improvement in Tm of +2° C.

Question: Which results are given for B1?
Answer: thermostability assayed with 3H-ZM241385 (antagonist): improved thermostability; thermostability measured with 3H-NECA (agonist): improved thermostability

Question: For B2, which “thermostability measured with 3H-NECA (agonist)” value (shortened to “thermostability measured”) is on record?
Answer: improved thermostability

Question: With B3 as the molecule, how does the “thermostability measured” value read?
Answer: improved thermostability

Question: For B4, which “thermostability measured” value is on record?
Answer: improved thermostability

Question: Which “thermostability measured” value does the source give for B5 here?
Answer: improved thermostability

Question: Which “thermostability measured” value does the source give for B6 here?
Answer: improved thermostability

Question: For B7, which “thermostability measured” value is on record?
Answer: improved thermostability

Question: For B8, which “thermostability measured” value is on record?
Answer: improved thermostability

Test: Thermostability of NTR and mutants (3H-neurotensin binding)
Assay type: physicochemical
Details: Ligand(+) format

Question: For B9, which “thermostability, heated in the presence of 3H-neurotensin” value is on record?
Answer: improved thermostability

Question: For B10, which “thermostability, heated in the presence of 3H-neurotensin” value is on record?
Answer: improved thermostability

Same assay, conditions: heated in the absence of the agonist

Question: For B9, which “thermostability, 3H-neurotensin (agonist) binding after the heating step” value (“thermostability, 3H-neurotensin” below) is on record?
Answer: small but significant increase in thermostability

Question: With B10 as the molecule, how does the “thermostability, 3H-neurotensin” value read?
Answer: small but significant increase in thermostability

Question: Which “thermostability, 3H-neurotensin” value does the source give for B11 here?
Answer: small but significant increase in thermostability

Reference: patent US8785135B2, “Mutant G-protein coupled receptors and methods for selecting them” (Heptares Therapeutics Limited, priority 2007, dated 2014)
